Laboratory results: US20240116985A1, “STAPLED PEPTIDES AND METHODS THEREOF” (priority 2020, published 2024)
Starred links: 1 amine or outer side, 2 acyl side, 3 side chain; linkers in the order of their positions; H or OH if unused. Positions of bridges follow the written chain, without caps; N, C: chain ends. Non-standard residues stand in square brackets, D forms with d. Primed or numbered codes have the meaning given here. *: point of attachment. PyrS2″ = (S)-3-amino-1-((pent-4-en-1-yloxy)carbonyl)pyrrolidine-3-carboxylic acid (stapling residue), C=CCCCOC(=O)N1CC[C@@](N[*:1])(C(=O)[*:2])C1; B5(4) = 2,2-bis(4-pentenyl)glycine = 2-amino-2-(pent-4-en-1-yl)hept-6-enoic acid (stitching residue), C=CCCCC(CCCC=C)(N[*:1])C(=O)[*:2]; B5(5) = 2,2-bis(4-pentenyl)glycine, 2-amino-2-(pent-4-en-1-yl)hept-6-enoic acid (stitching residue), C=CCCCC(CCCC=C)(N[*:1])C(=O)[*:2]; B5(33) = 2-amino-2-(pent-4-en-1-yl)hept-6-enoic acid (bis-pentenylglycine, two olefin side chains), C=CCCCC(CCCC=C)(N[*:1])C(=O)[*:2]; PyrS2 = (S)-3-amino-1-((pent-4-en-1-yloxy)carbonyl)pyrrolidine-3-carboxylic acid, C=CCCCOC(=O)N1CC[C@@](N[*:1])(C(=O)[*:2])C1; 5IndA = (S)-2-amino-3-(2,3-dihydro-1H-inden-5-yl)propanoic acid, O=C([C@H](Cc1ccc2c(c1)CCC2)N[*:1])[*:2]; B5(3) = 2,2-bis(4-pentenyl)glycine (stitching residue), C=CCCCC(CCCC=C)(N[*:1])C(=O)[*:2]; S10 = (S)-2-amino-2-methyldodec-11-enoic acid, C=CCCCCCCCC[C@](C)(N[*:1])C(=O)[*:2]; mPEG2 = N-terminal 3-(2-methoxyethoxy)propanoic acid, COCCOCCC(=O)*; Phe(3-COOH) = N[C@@H](Cc1cccc(C(=O)O)c1)C(=O)O; Phe(2-CF3) = N[C@@H](Cc1ccccc1C(F)(F)F)C(=O)O; Phe(3,4-Me2) = Cc1ccc(C[C@H](N)C(=O)O)cc1C; Phe(2-Cl) = N[C@@H](Cc1ccccc1Cl)C(=O)O; 1Nal = N[C@@H](Cc1cccc2ccccc12)C(=O)O; 2Nal = N[C@@H](Cc1ccc2ccccc2c1)C(=O)O; Bta = N[C@@H](Cc1csc2ccccc12)C(=O)O; αAllylPro = C=CC[C@@]1(C(=O)O)CCCN1; tBuAla = CC(C)(C)C[C@H](N)C(=O)O; 3Thi = N[C@@H](Cc1ccsc1)C(=O)O; S8 = C=CCCCCCC[C@](C)(N)C(=O)O; Thr(ol) = C[C@@H](O)[C@H](N)CO; Propanoyl(3-OMe) = COCCC(=O)*; Leu(ol) = CC(C)C[C@H](N)CO; 2F3MeF″ = Phe derivative; Octanoyl = CCCCCCCC(=O)*; Alaol = C[C@@H](CO)N*

Key:
[1] = molecular target: full-length beta-Catenin (Uniprot ID P35222) (Homo sapiens (Human)) (UniProt P35222); test: FP competition: displacement of 5FAM-TCF4(10-53) from full-length beta-catenin
Target sequence in this assay (P35222 whole entry, one chain of several): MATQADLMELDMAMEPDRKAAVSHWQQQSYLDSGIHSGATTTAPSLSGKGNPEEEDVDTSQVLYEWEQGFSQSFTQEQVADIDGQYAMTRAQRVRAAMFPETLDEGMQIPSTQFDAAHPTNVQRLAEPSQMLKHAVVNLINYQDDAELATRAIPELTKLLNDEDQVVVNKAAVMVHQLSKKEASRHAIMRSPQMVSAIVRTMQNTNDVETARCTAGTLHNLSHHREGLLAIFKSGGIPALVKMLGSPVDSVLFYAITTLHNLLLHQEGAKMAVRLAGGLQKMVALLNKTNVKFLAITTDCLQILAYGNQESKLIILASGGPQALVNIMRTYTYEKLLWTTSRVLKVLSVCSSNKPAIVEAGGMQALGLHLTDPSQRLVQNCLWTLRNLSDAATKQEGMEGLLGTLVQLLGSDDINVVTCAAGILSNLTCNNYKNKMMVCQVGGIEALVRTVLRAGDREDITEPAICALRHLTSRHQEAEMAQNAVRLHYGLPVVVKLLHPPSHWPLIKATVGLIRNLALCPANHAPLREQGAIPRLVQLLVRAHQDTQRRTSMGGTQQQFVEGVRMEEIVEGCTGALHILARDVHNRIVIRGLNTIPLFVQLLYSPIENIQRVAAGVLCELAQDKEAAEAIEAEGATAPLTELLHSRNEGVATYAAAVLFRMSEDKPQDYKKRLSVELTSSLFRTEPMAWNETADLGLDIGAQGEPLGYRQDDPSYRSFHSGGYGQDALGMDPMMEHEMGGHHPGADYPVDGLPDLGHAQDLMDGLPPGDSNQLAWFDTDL

[2] = molecular target: full-length beta-Catenin (Uniprot ID P35222) (Homo sapiens (Human)) (UniProt P35222); test: fluorescence polarization competition, competitor 5FAM-TCF4 10-53
Target sequence in this assay (P35222 2-781 limits assumed): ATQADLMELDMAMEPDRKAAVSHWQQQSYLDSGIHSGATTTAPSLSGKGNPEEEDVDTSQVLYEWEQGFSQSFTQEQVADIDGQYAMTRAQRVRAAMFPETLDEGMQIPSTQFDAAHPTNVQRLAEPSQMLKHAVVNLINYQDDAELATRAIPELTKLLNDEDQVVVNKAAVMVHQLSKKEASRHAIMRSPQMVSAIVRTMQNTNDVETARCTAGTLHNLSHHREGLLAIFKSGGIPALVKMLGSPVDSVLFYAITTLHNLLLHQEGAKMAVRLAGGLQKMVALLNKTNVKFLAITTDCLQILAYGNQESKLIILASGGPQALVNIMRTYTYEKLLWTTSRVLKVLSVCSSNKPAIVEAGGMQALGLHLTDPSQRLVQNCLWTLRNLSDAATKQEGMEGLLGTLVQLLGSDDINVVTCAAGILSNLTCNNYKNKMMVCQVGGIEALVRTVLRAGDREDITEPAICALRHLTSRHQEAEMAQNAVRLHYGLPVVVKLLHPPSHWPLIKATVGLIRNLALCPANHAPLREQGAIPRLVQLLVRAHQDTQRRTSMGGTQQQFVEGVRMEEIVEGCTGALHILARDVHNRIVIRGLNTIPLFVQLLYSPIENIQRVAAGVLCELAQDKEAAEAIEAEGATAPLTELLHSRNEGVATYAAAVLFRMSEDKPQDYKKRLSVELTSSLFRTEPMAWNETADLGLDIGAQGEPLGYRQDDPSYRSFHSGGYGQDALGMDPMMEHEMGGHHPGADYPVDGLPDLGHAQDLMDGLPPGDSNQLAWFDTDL

[3] = molecular target: full-length beta-Catenin (Uniprot ID P35222) (Homo sapiens (Human)) (UniProt P35222); test: fluorescence polarization competition; full-length beta-catenin + 5FAM-TCF4(10-53) probe
Target sequence in this assay (P35222 whole entry, one chain of several): as the sequence (P35222 whole entry, one chain of several) above

Bcat-Halo = Bcat-Halo (UniProt P35222); test: NanoBRET Abs IC50, HEK293 cells, Bcat-Halo / TCF4-Luc
[4] = molecular target: full-length beta-Catenin (Uniprot ID P35222) (Homo sapiens (Human)) (UniProt P35222); test: fluorescence polarization competition against 5FAM-TCF4(10-53), full-length beta-catenin
Target sequence in this assay (P35222 whole entry, one chain of several): as above

Bcat-Halo, sequence (P35222 whole entry): as the sequence (P35222 whole entry, one chain of several) above

Binder | EC50 [1] [nM] | IC50 [2] [nM] | EC50 [3] [nM] | IC50 (Bcat-Halo) [nM] | IC50 [4] [nM]
Ac-[αAllylPro]D[tBuAla][B5(4)]DDAAFL[PyrS2″][Phe(2-Cl)][Bta][Thr(ol)] (staple 1-4, 4-11) [I-1249] | 17 | 17 | – | – | –
Ac-[αAllylPro]D[tBuAla][B5(4)]DDAAFL[PyrS2″][Phe(2-Cl)][Bta]-Alaol (staple 1-4, 4-11) [I-1250] | 31 | 31 | – | – | –
Ac-[αAllylPro]D[tBuAla][B5(4)]DDAAFL[PyrS2″][Phe(2-Cl)][Bta][Leu(ol)] (staple 1-4, 4-11) [I-1251] | 1940 | 1940 | – | – | –
Octanoyl-[αAllylPro]D[tBuAla][B5(4)]DDAAFT[S8][Phe(2-Cl)][Bta]Q-NH2 (staple 1-4, 4-11) [I-1254] | 530 | 530 | – | – | –
mPEG2-[αAllylPro]D[tBuAla][B5(33)]DDAAFT[S8][Phe(2-Cl)][Bta]Q-NH2 (staple 1-4, 4-11) [I-1255] | 32 | 32 | – | – | –
XDXXDDAAFTXFXQ (not fully specified; MeSO2-PL3-Asp-Npg-B5-Asp-Asp-Ala-Ala-Phe-Thr-S8-2C1F-BztA-Gln-NH2; stapled by olefin metathesis (PL3-B5 and B5-S8)) [I-1260] | – | 23 | 23 | – | –
{Propanoyl(3-OMe)}-[αAllylPro]D[tBuAla][B5(33)]DDAAFT[S8][Phe(2-Cl)][Bta]Q-NH2 (staple 1-4, 4-11) [I-1261] | – | 31 | 31 | – | –
Ac-[αAllylPro]D[tBuAla][B5(33)]DDAAFT[S10][Phe(2-Cl)][Bta]T-NH2 (staple 1-4, 4-11) [I-1262] | – | 1120 | 1120 | – | –
Ac-[αAllylPro]D[tBuAla][B5(33)]DTAAFT[PyrS2]F[Bta]S-NH2 (staple 1-4, 4-11) [I-1263] | – | 43 | 43 | – | –
Ac-[αAllylPro]D[tBuAla][B5(33)]DTLAFT[PyrS2]F[Bta]S-NH2 (staple 1-4, 4-11) [I-1264] | – | 157 | 157 | – | –
Ac-[αAllylPro]D[tBuAla][B5(33)]DTALFT[PyrS2]F[Bta]S-NH2 (staple 1-4, 4-11) [I-1265] | – | 152 | 152 | – | –
Ac-[αAllylPro]D[tBuAla][B5(5)]DTAA[1Nal]T[PyrS2″]F[Bta]S-NH2 (staple 1-4, 4-11) [I-1266] | – | 755 | 755 | – | –
Ac-[αAllylPro]D[tBuAla][B5(5)]DTAA[2Nal]T[PyrS2″]F[Bta]S-NH2 (staple 1-4, 4-11) [I-1267] | – | 181 | 181 | – | –
Ac-[αAllylPro]D[tBuAla][B5(4)]D[Phe(3-COOH)]QAFL[PyrS2][Phe(2-CF3)][Phe(3,4-Me2)]A-NH2 (staple 1-4, 4-11) [I-2294] | – | – | – | 4600 | 16
Ac-[αAllylPro]D[tBuAla][B5(4)]D[Phe(3-COOH)]QAFV[PyrS2][3Thi][5IndA]A-NH2 (staple 1-4, 4-11) [I-2296] | – | – | – | 5100 | 6
Ac-[αAllylPro]D[tBuAla][B5(4)]D[Phe(3-COOH)]QAFL[PyrS2″][Phe(2-CF3)][5IndA]A-NH2 (staple 1-4, 4-11) [I-2298] | – | – | – | 4600 | 8
Ac-[αAllylPro]D[tBuAla][B5(4)]D[Phe(3-COOH)][(NHEt)GlnR]AFL[PyrS2″][2F3MeF″][Bta][(NHEt)GlnR]-NH2 (staple 1-4, 4-11) [I-2299] | – | – | – | 5200 | 7
